Experimental data as given in patent US20200282012A1 (published 2020).

B1: CA28-2GS-BF (peptide)
peptide: ICVWQDWGAHRCTK
modifications: N-terminal acetyl; 1-methyl-tryptophan at position 4; disulfide Cys2-Cys12; AEEAc spacer between Thr13 and Lys; Lys side chain coupled to one end of a bifunctional linear 40 kD PEG of the GS type (glutaryl; amide and ester linkage); C-terminal amide
B2: (CA28-AEEAc)8-PEG40k (peptide)
peptide: ICVWQDWGAHRCTK
modifications: N-terminal acetyl; 1-methyl-tryptophan at position 4; disulfide Cys2-Cys12; AEEAc spacer between Thr13 and Lys; Lys side chain coupled to one arm of an eight-arm 40 kD PEG (SUNBRIGHT HGEO-400GS); C-terminal amide

What was measured:
[1] = biological target: T1, human complement component C3 (human, UniProt P01024 23-1663); assay: cell-based or functional assay
[2] = biological target: T1, human complement component C3; assay: cell-based or functional assay; remark: listed apart in the source

% Parent, Q1 (Type III cells with C3d deposition), modified Ham's assay, CA28-2GS-BF 50 ug/ml [1] [%] | % Parent, Q2 (Type I and II cells with C3d deposition), modified Ham's assay, CA28-2GS-BF 50 ug/ml [1] [%] | % Parent, Q3 (Type III cells without significant C3d deposition), modified Ham's assay, CA28-2GS-BF 50 ug/ml [1] [%] | % Parent, Q4 (Type I and II cells without significant C3d deposition), modified Ham's assay, CA28-2GS-BF 50 ug/ml [1] [%] | IC50 as a function of CA28 concentration, classical complement inhibition assay (C3b deposition ELISA, human plasma) [2] [µM] | Binder
0.01 | 0.01 | 61.5 | 38.5 |  | B1
 |  |  |  | 1.93 | B2
